In one data set the target is IGF-I (Homo sapiens, UniProt P05019). The data set can be described thus: Affinity for IGF-I: competition with 125I-IGF-1 tracer, Scatchard analysis. The format is binding. Conditions: association constant, IGF-I competitor. The protocol:
(§1) The affinity of wild type (wt) IGFBP-3 and of mutated IGFBP-3 (mini-IGFBP-3) for IGF-I and IGF II was determined using ^125I-IGF-1 as a radioactive tracer. Various concentrations of IGF-I and IGF-II were used as competitors and affinity constants were determined by Scatchard analysis.

Data set [1] deals with T1, IGF-II (Homo sapiens, UniProt P01344).
T1 construct: before undergoing regulated endoproteolytic cleavage to the mature form (IGF-II)
The data set can be described thus: Affinity for IGF-II: competition with 125I-IGF-1 tracer, Scatchard analysis. The format is binding. Conditions: association constant, IGF-II competitor. The method, then:
as §1

In data set [2] the test system is AKT phosphorylation in A549 (lung cancer). The data set can be described thus: AKT phosphorylation, A549 cells. The following applies: different incubation times. The data set is classed as cell-based, human. The protocol:
(§2) These effects are compared to those of ppp (see Example 5 for experimental details). FIG. 11(B) is a graph showing the effects of mini-IGFBP-3-Fc on the phosphorylation of AKT in MiaPaCa-2 cells (upper left), HT-29 cells (upper right) and A549 cells (lower left) and of […] on the phosphorylation of AKT in A549 cells (lower right) after different incubation times, as indicated (see Example 5 for experimental details).
(§3) The inhibiting activity of mini-IGFBP-3-Fc on AKT phosphorylation was also assessed in various human tumor cell lines: MiaPaCa-2 (pancreatic cancer), HT-29 (colon cancer) and A549 (lung cancer). The inhibiting activity of mini-IGFBP-3 on AKT phosphorylation was assessed A549 cells.

A short description of data set [3]: Decay of concentrations in mouse plasma after intravenous injection (ELISA). The format is in vivo. Conditions: mice, 250 μg intravenously. The protocol: 250 μg of the indicated protein were injected intravenously to groups (n=3) of mice at time zero. Blood samples were drawn at the indicated time points, centrifuged and kept frozen. Concentrations of injected proteins were determined by an in-house sandwich type ELISA using anti-human IGFBP-3 specific monoclonal antibodies.
To pave the ground for future assessments of mini-IGFBP-3 in vivo activity, mini-IGFBP-3 and its derivatives were injected into mice. When measured using human-specific IGFBP-3 ELISA test, several kinetics could be observed.
On the technique in general: An ELISA detects its analyte on a solid surface through an enzyme-linked reagent.

For data set [4], the system named is HT-29 human colorectal tumor xenografts. As to the kind of experiment: Tumor signalling in mice bearing HT-29 xenografts, 12 hours treatment (western immunoblots). The following applies: three i.p. injections (340 μg) every 3 hours, sacrifice at 12 hours; for Erk1/2 phosphorylation in tumors / Rb phosphorylation in tumors: vs untreated. The data set is classed as in vivo, NMRI-nu mice. The method, then:
Thus, HT-29 xenografts were established in nude mice. After tumor had reached a critical size, mice were treated with either mini-IGFBP-3 or mini-IGFBP3-Fc in three i.p. injections separated by a three hours interval and mice were sacrificed after […]. Tumor MEK and PI3Kinase signalling pathways were assessed in these tumors, together with the cell cycle regulator Rb, by evaluating the phosphorylation status of AKT, ERK-1/2 and Rb, respectively, using western immunoblots.
More specifically, 2.5×10^6 HT-29 cells were injected s.c. into each flank of 5 weeks old NMRI-nu mice. Tumors were allowed to grow up to a volume of 500 mm^3 before mice were randomized into individual treatment groups (n=2) and received three i.p. injections (340 μg) of either mini-IGFBP-3 or mini-IGFBP-3-Fc every 3 hours. The control group was injected with saline. Twelve (12) hours after treatment initiation, mice were sacrificed and excised tumors were cut in half. One half was snap frozen in liquid nitrogen and stored at −80° C. The other half was fixed in Finfix, included in paraffin and processed for immuno-histochemistry. For Western blot analysis, tumors were homogenized in lysis buffer (10 mM Tris HCl at pH 7.4, 150 mM NaCl, 1% Nonidet P-40, 0.1% sodium deoxycholate, 0.1% SDS, 1 mM EDTA, 2 mM sodium orthovanadate, protease inhibitor tablet [Roche Molecular Biochemicals]). After centrifugation, protein concentrations were determined by the Bio-Rad protein assay (Bio-Rad). Fifteen micrograms of protein were run on a 4%-12% SDS-PAGE gel (Invitrogen). Membranes were blocked in 5% nonfat milk in TBS-T overnight at 4° C., washed with TBS-T, incubated with anti-mouse or anti-rabbit horseradish peroxidase-conjugated secondary antibodies in TBS-T for 1 hour at room temperature, and washed in TBS-T. The signal was visualized using an enhanced chemiluminescence solution and exposed to film. The blotting antibodies used wherein phosphor-Akt, Akt, mitogen-activated protein kinase ERK1/2, phosphor-mitogen-activated protein kinase pErk1/2, Rb (BD Biosciences), β-actin and G3PDH; antibodies were from Cell Signalling Technology unless otherwise stated.
In general terms: Immunoblotting shows a protein as a band on a membrane.

A further data set addresses T2, MMP-7 (Homo sapiens, UniProt P09237).
T2 sequence (P09237 95-267): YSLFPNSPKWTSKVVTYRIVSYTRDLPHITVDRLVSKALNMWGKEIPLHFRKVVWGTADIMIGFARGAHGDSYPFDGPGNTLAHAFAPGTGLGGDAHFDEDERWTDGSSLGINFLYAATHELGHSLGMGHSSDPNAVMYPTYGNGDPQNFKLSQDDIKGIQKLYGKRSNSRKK
As to the kind of experiment: Proteolytic digestion by activated MMP-7 (SDS-PAGE). Conditions: substrate 20 μM, 1:10 molar ratio, enzyme activated with 1 mM APMA. The format is biochemical. The method, then: (§4) The ability of mini-IGFBP-3 to resist proteolytic digestion by Matrix Metalloproteinases, MMP-7 and MMP-9, is also currently being tested. MMP-7 and MMP-9 are expressed by tumor cells and are present in higher quantity in the bloodstream of cancer patients where they contribute to the degradation of native, endogenous IGFBP-3. In the experiments, these enzymes are first activated with 1 mM APMA. Mini-IGFBP-3 and full length IGFBP-3 are compared as substrate for activated MMP-7 and MMP-9. Concentrations of each substrate (20 μM) are incubated in a 1:10 molar ratio with either MMP-7 or MMP-9. At the end of the incubation period, proteins are analyzed by SDS-PAGE to evaluate their respective cleavage into fragments.

The next data set deals with MMP-9 (Homo sapiens, UniProt P14780). As to the kind of experiment: Proteolytic digestion by activated MMP-9 (SDS-PAGE). The following applies: substrate 20 μM, 1:10 molar ratio, enzyme activated with 1 mM APMA. The format is biochemical. The method, then: as §4
Data set [5] has as its target T1, IGF-II. The data set can be described thus: Solid-phase assay: displacement of biotinylated IGF-II tracer from immobilized binding protein. Conditions: increasing free IGF-II. The text has this: FIG. 10(A) is a graph showing the relative binding affinity of mini-IGFBP-3 and mini-IGFBP-3-Fc towards IGF-II. The solid phase assay used measured the ability of increasing concentrations of free IGF-II to displace binding of the biotinylated IGF-II tracer to mini-IGFBP-3 and mini-IGFBP-3-Fc immobilized on a support (See Example 5 for experimental details). FIG. 10(B) is a graph showing the effects of mini-IGFBP-3-Fc on proliferation and survival of three human tumor cell lines cultivated in the presence of 10% FCS: Hep3B, HuH7 and INA-6. The effects of mini-IGFBP-3-Fc are compared to the effects of picropodophyllin (ppp), a compound known to interfere with IGF-R signalling pathway (see Example 5 for experimental details).
A solid-phase assay was used to study the binding affinity of mini-IGFBP-3-Fc for IGF-II. In this assay, two binding proteins (mini-IGFBP-3 and mini-IGFBP-3-Fc) were immobilized to a support. They were incubated with the biotinylated IGF-II tracer, and then increasing concentrations of IGF-II were added.

The next data set deals with Hep3B. The data set can be described thus: Cell viability assay (WST-1), Hep3B. Conditions: 100 nM, 72 hours, 10% FCS. The format is cell-based, human. The protocol:
(§5) The effects of mini-IGFBP-3-Fc on the proliferation and survival of three human tumor cell lines, Hep3B and HuH7—hepatocellular carcinoma cell lines) and INA-6 (multiple myeloma cell line), were studied. For each cell line cultivated in the presence of 10% fetal calf serum (FCS), the effect of mini-IGFBP-3-Fc were compared to the effect picropodophyllin (ppp), a compound known to interfere with the IGF1-R signalling pathway. A cell viability assay was performed 72 hours after initiation of the culture in the presence of mini-IGFVP-3-Fc (100 nM) or ppp (1 μM) in a medium containing 10% FCS by adding WST-1 and monitoring formazan conversion.

Another data set deals with HuH7. The data set can be described thus: Cell viability assay (WST-1), HuH7. The format is cell-based, human. The following applies: 100 nM, 72 hours, 10% FCS. The method, then:
as §5
A general note: Tetrazolium dyes change colour on reduction, which living cells bring about.

Another data set has as its system INA-6. As to the kind of experiment: Cell viability assay (WST-1), INA-6. The format is cell-based, human. Conditions: 100 nM, 72 hours, 10% FCS. The protocol: as §5
The test system of data set [6] is phosphorylation of AKT in INA-6 myeloma cells. The data set can be described thus: AKT phosphorylation, INA-6 myeloma cells (western blot). The format is cell-based. The following applies: 100 nm; 3, 6 or 24 hours; 10% FCS. The method, then:
The INA-6 myeloma cell line was grown in the presence of 10% FCS. The cells were incubated with mini-IGFBP-3 (100 nm) or ppp (1 μM) 3, 6 or 24 hours. After incubation, the cells were lysed using a lysis buffer, and cell extracts (normalized for protein contents) were loaded on SDS-PAGE gel, transferred onto nitrocellulose membrane, which was further incubated with a monoclonal antibody directed against the […] residue of the AKT protein. The membrane was also re-probed after stripping with an anti-actin antibody to check for equal loading.

The test system of data set [7] is AKT phosphorylation in MiaPaCa-2 (pancreatic cancer). The data set can be described thus: AKT phosphorylation, MiaPaCa-2 cells. The format is cell-based, human. Conditions: different incubation times. The method, then: as §2, §3
Data set [8] has as its system AKT phosphorylation in HT-29 (colon cancer). As to the kind of experiment: AKT phosphorylation, HT-29 cells. The data set is classed as cell-based, human. The following applies: different incubation times. The protocol: as §2, §3

T1 sequence (P01344 25-91 limits assumed): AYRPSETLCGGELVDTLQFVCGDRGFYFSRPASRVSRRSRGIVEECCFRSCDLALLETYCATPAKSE
Sequence of IGF-I (P05019 49-118 limits assumed): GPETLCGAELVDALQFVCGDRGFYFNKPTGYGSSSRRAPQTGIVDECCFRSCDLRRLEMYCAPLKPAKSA
Sequence of MMP-9 (P14780 107-707 limits assumed): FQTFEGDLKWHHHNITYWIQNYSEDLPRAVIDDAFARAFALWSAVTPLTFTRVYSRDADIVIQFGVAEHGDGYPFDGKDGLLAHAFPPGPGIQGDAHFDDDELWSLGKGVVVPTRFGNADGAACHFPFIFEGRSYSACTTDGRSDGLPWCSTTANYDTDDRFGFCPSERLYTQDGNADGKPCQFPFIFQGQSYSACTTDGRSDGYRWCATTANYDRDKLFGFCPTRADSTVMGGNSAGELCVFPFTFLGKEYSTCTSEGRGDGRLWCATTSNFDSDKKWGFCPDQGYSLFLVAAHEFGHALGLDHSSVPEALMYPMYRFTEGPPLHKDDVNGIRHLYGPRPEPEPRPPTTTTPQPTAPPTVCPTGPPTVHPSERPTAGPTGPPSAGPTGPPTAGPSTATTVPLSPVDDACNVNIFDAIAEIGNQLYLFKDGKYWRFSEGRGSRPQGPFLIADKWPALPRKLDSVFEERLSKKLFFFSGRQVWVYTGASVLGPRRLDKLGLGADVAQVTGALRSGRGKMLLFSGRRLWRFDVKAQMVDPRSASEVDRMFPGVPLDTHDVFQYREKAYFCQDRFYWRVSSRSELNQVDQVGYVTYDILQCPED

In the case of “mini-IGFBP-3: Human IGFBP-3 mutein: 85 central-domain residues (95 to 179) replaced by 15 amino acid spacer GGGSGGSGGSGGSGG (SEQ ID NO: 4)”, the “affinity constant for IGF-I” value in the data set with IGF-I is 2.4e+10 M⁻¹. For the same molecule, the “affinity constant for IGF-II” value in the data set with IGF-II [1] came out at 3.14e+10 M⁻¹. Further, the “AKT phosphorylation in A549 cells” value in data set [2] is on record as “able to block the AKT phosphorylation”. Besides, in data set [3], the “fraction of the initial dose that left the bloodstream in the first 3-4 hours” value was 80-90% and the “remaining fraction that disappeared very slowly until 48 hours” value is listed as 10-20%. In data set [4], the “AktS473 phosphorylation in tumors” value is “abolished”, the “mitotic index compared to untreated tumors” value is −12%, the “Erk1/2 phosphorylation in tumors” value is reported as “considerably decreased” and the “Rb phosphorylation in tumors” value is on record as “decreased”. For the same molecule, the “cleavage by MMP-7” value with MMP-7 was “resists this proteolytic attack”. Further, the “cleavage by MMP-9” value with MMP-9 is “resists this proteolytic attack”.
For the molecule “wt IGFBP-3: Recombinant wild type human IGFBP-3 with hexahistidine N-terminal extension, comparator [reference compound]”, the “affinity constant for IGF-I” value in the data set with IGF-I was determined as 2.96e+10 M⁻¹. For the same molecule, the “affinity constant for IGF-II” value with IGF-II [1] came to 3.5e+10 M⁻¹. Besides, in the data set with MMP-7, the “cleavage by MMP-7” value is listed as “digested”. Further, in the data set with MMP-9, the “cleavage by MMP-9” value is recorded as “digested”.

B1: mini-IGFBP-3-Fc: Immunoadhesin fusion protein joining mini-IGFBP-3 to the Fc fragment of human IgG1 (protein)
chain: GASSAGLGPVVRCEPCDARALAQCAPPPAVCAELVREPGCGCCLTCALSEGQPCGIYTERCGSGLRCQPSPDEARPLQALLDGRGLCVNASAVSGGGSGGSGGSGGSGGETEYGPCRREMEDTLNHLKFLNVLSPRGVHIPNCDKKGFYKKKQCRPSKGRKRGFCWCVDKYGQPLPGYTTKGKEDVHCYSMQSK
modifications: left off: a dimerising Fc or GST
notes: Immunoadhesin fusion protein joining mini-IGFBP-3 to the Fc fragment of human IgG1
As for B1, the “apparent affinity for IGF-II compared with unfused mini-IGFBP-3” value in the data set with IGF-II [5] is “higher apparent affinity”. Moreover, in the data set on Hep3B, the “proliferation and survival of Hep3B” value is reported as “anti-proliferative activity”. Besides, the “proliferation and survival of HuH7” value in the data set with HuH7 is “anti-proliferative activity”. Moreover, in the data set with INA-6, the “proliferation and survival of INA-6” value was “anti-proliferative activity”. Besides, the “phosphorylation of AKT in INA-6 cells” value in data set [6] was “inhibiting effects”. The “AKT phosphorylation in MiaPaCa-2 cells” value in data set [7] is on record as “able to block the AKT phosphorylation”. Further, the “AKT phosphorylation in HT-29 cells” value in data set [8] is listed as “able to block the AKT phosphorylation”. In addition, the “AKT phosphorylation in A549 cells” value in data set [2] is on record as “able to block the AKT phosphorylation”. Also, in data set [3] (single slope kinetics), the “half-life of serum concentration” value is recorded as “about 12 hours”. For the same molecule, in data set [4], the “AktS473 phosphorylation in tumors” value was “abolished”, the “mitotic index compared to untreated tumors” value was −12%, the “Erk1/2 phosphorylation in tumors” value was “considerably decreased” and the “Rb phosphorylation in tumors” value is “decreased”.

Values taken from US9878016B2, “IGFBP-3 derivatives and uses thereof” (INSERM (Institut National de la Sante et de la Recherche …, priority 2011, dated 2018).
